Earlier results on one substance are cited in article PMC8226686.

pKd: −log10 of the molar value.

The data set concerns the target insulin receptor (Homo sapiens) (UniProt P06213).
UniProt P06213, sequence (P06213 763-1382): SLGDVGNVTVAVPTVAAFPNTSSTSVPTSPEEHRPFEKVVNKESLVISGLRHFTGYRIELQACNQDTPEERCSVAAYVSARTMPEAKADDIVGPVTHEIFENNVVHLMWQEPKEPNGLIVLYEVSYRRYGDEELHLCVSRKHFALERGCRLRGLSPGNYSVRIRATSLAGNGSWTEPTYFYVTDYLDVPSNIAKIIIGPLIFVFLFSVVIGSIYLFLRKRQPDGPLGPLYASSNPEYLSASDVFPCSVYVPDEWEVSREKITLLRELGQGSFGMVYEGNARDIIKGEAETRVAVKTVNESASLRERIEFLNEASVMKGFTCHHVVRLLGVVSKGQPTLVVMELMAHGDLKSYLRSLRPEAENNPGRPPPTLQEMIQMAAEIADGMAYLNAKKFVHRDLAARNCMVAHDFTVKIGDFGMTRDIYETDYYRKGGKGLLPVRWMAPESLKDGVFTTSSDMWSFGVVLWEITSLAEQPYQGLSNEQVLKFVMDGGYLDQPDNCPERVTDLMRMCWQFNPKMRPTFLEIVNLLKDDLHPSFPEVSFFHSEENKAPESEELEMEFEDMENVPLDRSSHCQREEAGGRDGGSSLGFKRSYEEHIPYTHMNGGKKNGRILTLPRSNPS

insulin, sequence (P01308 90-110): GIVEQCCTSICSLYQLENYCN

One may read the pKd as −log10 of the Kd, conventionally taken in molar units. Take insulin (from UniProt P01308): the pKd was 8.66.
